# Experimental data reported in US20030073142A1 (published 2003).
# B1: test peptide number 539.11 (human IgE CH2 nonamer, Trp Leu Ser Asp Arg Thr Tyr Thr Cys) (peptide)
# peptide: WLSDRTYTC
# B2: test peptide number 539.12 (human IgE CH1 nonamer, Trp Val Asp Asn Lys Thr Phe Ser Val) (peptide)
# peptide: WVDNKTFSV
# B3: test peptide number 539.8 (human IgE CH1 nonamer, Leu Leu Thr Val Ser Gly Ala Trp Ala) (peptide)
# peptide: LLTVSGAWA
# B4: test peptide number 539.9 (human IgE CH4 nonamer, Gln Leu Pro Asp Ala Arg His Ser Thr) (peptide)
# peptide: QLPDARHST
# B5: test peptide number 539.10 (human IgE CH1 nonamer, Thr Gln Ser Pro Ser Val Phe Pro Leu) (peptide)
# peptide: TQSPSVFPL
# Target: human MHC-I HLA-A2.1 expressed on RMA-S-A2.1 cells (murine TAP-deficient RMA-S cells engineered to express … (human, UniProt A*02:01))
# Assay: cell-based or functional assay
row,Binder,"HLA-A2.1-specific fluorescence intensity (FACS, surface HLA-A2.1 on TAP-deficient RMA-S-A2.1 cells after overnight incubation with 50 micromoles per liter peptide) [log]"
1,B1,1
2,B2,1
3,B3,1
4,B4,1
5,B5,1
